According to patent publication US20160251438A1:

Assays:
[1] = molecular target: GARP / TGF-β1 Y336Q complex (human) (UniProt Q14392); experiment: FACS titration on transfected 293T; EC50 mutant / EC50 WT
[2] = molecular target: GARP / TGF-β1 Y336Q complex (human) (UniProt Q14392); experiment: flow cytometry on transfected 293T cells, 5 ug/ml; grade of Loss of binding read by footnote 2
[3] = molecular target: GARP / TGF-β1 Y336Q complex (human) (UniProt Q14392); experiment: FACS titration on transfected 293T; EC50 mutant / EC50 WT [cont.) B]
[4] = molecular target: GARP / TGF-β1 Y336Q complex (human) (UniProt Q14392); experiment: flow cytometry titration on transfected 293T cells; grade of Reduced avidity read by footnote 3

Sequence of GARP / TGF-β1 Y336Q complex (human) (Q14392 20-662, chain 1 of 2): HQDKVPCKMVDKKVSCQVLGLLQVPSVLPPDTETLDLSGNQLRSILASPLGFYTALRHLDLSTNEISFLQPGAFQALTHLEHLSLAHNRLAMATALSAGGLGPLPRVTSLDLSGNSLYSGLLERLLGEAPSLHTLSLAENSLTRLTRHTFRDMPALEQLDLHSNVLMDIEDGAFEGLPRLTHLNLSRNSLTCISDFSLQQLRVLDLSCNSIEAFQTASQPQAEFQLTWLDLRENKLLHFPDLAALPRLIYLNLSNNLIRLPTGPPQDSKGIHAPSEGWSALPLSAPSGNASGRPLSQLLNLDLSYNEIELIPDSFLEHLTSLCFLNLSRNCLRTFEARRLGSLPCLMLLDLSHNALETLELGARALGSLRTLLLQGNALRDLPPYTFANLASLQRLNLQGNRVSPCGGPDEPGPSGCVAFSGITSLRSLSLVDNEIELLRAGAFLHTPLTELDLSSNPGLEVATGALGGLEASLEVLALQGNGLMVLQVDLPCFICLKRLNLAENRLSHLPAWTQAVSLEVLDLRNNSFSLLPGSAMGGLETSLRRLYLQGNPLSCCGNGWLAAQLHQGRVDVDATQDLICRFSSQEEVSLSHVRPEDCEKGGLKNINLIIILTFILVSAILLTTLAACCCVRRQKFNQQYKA
Sequence of GARP / TGF-β1 Y336Q complex (human) (P01137 30-390 Y336Q, chain 2 of 2, further chain): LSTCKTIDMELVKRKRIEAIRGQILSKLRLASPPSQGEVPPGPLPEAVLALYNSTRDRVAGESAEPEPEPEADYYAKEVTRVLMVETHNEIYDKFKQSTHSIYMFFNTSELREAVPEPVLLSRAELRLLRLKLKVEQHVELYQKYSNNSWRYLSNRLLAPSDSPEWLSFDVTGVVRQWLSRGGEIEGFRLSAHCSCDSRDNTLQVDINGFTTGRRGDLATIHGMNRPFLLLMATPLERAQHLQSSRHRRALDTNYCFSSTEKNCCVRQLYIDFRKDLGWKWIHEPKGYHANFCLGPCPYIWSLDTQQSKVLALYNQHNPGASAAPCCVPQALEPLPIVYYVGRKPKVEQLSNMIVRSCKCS

B1: MHGARP8 (antibody, V domains shown)
VH: QVQLKESGPGLVAPSQSLSITCTVSGFSLTGYGINWVRQPPGKGLEWLGMIWSDGSTDYNSVLTSRLRISKDNSNSQVFLKMNSLQVDDTARYYCARDRNYYDYDGAMDYWGQGTSVTVSS
VL: DIQVTQSSSYLSVSLGDRVTITCKASDHIKNWLAWYQQKPGIAPRLLVSGATSLEAGVPSRFSGSGSGKNFTLSITSLQTEDVATYYCQQYWSTPWTFGGGTTLEIR
With B1 the Ratio of EC50 (mutant / wt) [1] was 0.9 and the residual binding on mutant by comparison to WT [2] was over 50%.

B2: LHG-10 (antibody, human IgG1, V domains shown)
VH: EVQLVQPGAELRNSGASVKVSCKASGYRFTSYYIDWVRQAPGQGLEWMGRIDPEDGGTKYAQKFQGRVTFTADTSTSTAYVELSSLRSEDTAVYYCARNEWETVVVGDLMYEYEYWGQGTQVTVSS
VL: DIQMTQSPTSLSASLGDRVTITCQASQSISSYLAWYQQKPGQAPKLLIYGASRLQTGVPSRFSGSGSGTSFTLTISGLEAEDAGTYYCQQYDSLPVTFGQGTKVELK
B2 gave a Ratio of EC50 (mutant / wt) [3] of 1.1, a residual binding on mutant by comparison to WT [2] of over 50% and a ratio of EC50 (mutant vs WT) [4] of under 2.
